Measurements from patent US20030120037A1 (published 2003).

How the values were obtained:
[1] = target: FPRL1, seven-transmembrane G-protein coupled receptor (human) (UniProt P25090); experiment: cell-based or functional assay
[2] = target: T1, FPRL1, seven-transmembrane G-protein coupled receptor (human, UniProt P25090 1-351); experiment: radioligand binding on FPRL1/293 cells; 16 nM 125I-SAA with increasing unlabeled SAA; LIGAND analysis; FPRL1/293 cells; saturation/LIGAND estimate, 42000 sites/cell
T1 construct: whole, on cells; also called FPRH2; LXA4R
T1 sequence (looked up): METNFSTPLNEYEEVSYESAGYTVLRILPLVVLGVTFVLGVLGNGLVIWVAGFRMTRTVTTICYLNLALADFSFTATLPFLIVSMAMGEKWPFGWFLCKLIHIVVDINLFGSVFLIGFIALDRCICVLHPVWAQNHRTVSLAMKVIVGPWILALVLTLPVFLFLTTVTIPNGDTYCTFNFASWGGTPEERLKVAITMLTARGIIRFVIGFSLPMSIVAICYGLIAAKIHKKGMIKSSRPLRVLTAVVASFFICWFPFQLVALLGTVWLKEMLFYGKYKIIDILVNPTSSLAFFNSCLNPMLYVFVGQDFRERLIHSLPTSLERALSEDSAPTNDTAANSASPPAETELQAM
Method: (§1) The data was analyzed and plotted using LIGAND software on a Macintosh computer.
(§2) After incubation, the cells were washed once with ice-cold PBS then were layered onto a 10% sucrose/PBS cushion in Eppendorf tubes. The cells were centrifuged at 10,000 g for 1 min and the tips of the tubes containing cell pellets were cut and measured for radioactivity in a y-counter.

[3] = target: T2, FPR, classical formyl peptide receptor (human, UniProt P21462 1-350); experiment: binding of radiolabeled SAA to receptor-transfected cells
T2 construct: whole, on cells; also called FPR/293 cells
T2 sequence (looked up): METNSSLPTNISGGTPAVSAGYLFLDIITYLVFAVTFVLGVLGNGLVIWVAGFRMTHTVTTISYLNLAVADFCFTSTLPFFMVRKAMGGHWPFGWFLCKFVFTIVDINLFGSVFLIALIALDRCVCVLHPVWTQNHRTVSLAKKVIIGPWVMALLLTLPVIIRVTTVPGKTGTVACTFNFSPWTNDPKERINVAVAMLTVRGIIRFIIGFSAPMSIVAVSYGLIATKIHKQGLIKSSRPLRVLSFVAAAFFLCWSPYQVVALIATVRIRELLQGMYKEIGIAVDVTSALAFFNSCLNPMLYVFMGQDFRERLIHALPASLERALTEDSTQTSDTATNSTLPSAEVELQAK

[4] = target: T1, FPRL1, seven-transmembrane G-protein …; experiment: Homologous displacement binding on human monocytes (native cells): constant 125I-SAA plus increasing unlabeled SAA, LIGAND/Scatchard analysis. The filing names FPRL1 as the SAA receptor on phagocytes; the receptor on monocytes is not isolated in this panel.
Method: as §1, §2

[5] = target: T1, FPRL1, seven-transmembrane G-protein …; experiment: displacement of 125I-SAA from FPRL1/293 cells by unlabeled SAA (the same value is told for monocytes and neutrophils); homologous displacement of 125I-SAA by unlabeled SAA; FPRL1/293 cells
Method: as §1, §2

Molecule: N-formyl-methionyl-leucyl-phenylalanine (peptide)
- Ca2+ mobilization in FPRL1 transfected cells (FPRL1/293 cells) [1]: 10 µM

B1: 125I-labeled recombinant human serum amyloid A (ligand)
chain: MRSFFSFLGEAFDGARDMWRAYSDMREANYIGSDKYFHARGNYDAAKRGPGGVWAAEAISNARENIQRFFGRGAEDSLADQAANEWGRSGKDPNHFRPAGLPEKY
modifications: radio-iodinated on tyrosine and lysine residues with the chloramine T method (125I)
notes: specific activity 5.8 mCi/mg; also called radioiodinated SAA
- Kd [2]: 0.064 µM
- binding result [3]: no binding
- Kd [4]: 0.034 µM

B2: Recombinant human (rh) serum amyloid A (SAA) (ligand)
chain: B1 chain
notes: Bought from Pepro Tech; also called rhSAA; unlabeled SAA
- IC50 [5]: ~0.05 µM
